Assay results published in the supplement of paper PMC11502859.

These substances were tested on HEK293T (assay: median enrichment of reporter reads in eGFP-reduced (low/intermediate) vs eGFP-high sorted cells (eGFP-extension fusion abundance) (ratio); higher = stronger loss of eGFP-fusion protein abundance (more destabilising extension)).
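Also: lentiviral eGFP-IRES-mCherry reporter pool sorted by FACS 96 h post-transduction, gated on mCherry-high cells, Illumina read counts normalized per million, median across four biological replicates.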

Substance | median enrichment
YLSVYLSIYLSIYLSIYVYLSCIYTRL [AK9] | 9.52
SILFHLILALHLLYISPE [CLRN3] | 9.21
QRLDMLSPNEPLSSPGEGR [ISX] | 0.656
FFFFFF [Phe06] | 9.02
YGTDGRRGPGTPGMGGPNP [GATA2] | 1.68
ESYNHMQLWDRSLVLGTIHTHTPSLCLWLTSQKTLVNDHSRILTRIHVTDLTQ [CPAMD8] | 15.9
WGC [PIGN] | 0.651
SFTHHMDSIYKSQ [EDNRB] | 1.08
RRKEFCKETIRFVKDILHNI [PPP1CB] | 7.66
SEAPAANTMQARCVSELF [METTL2B] | 0.81
QELARQLPLLHPQ [TECTB] | 0.3
KKKKKKK [Lys07] | 0.751
YFVLRTDFLPIPFLNIQRLYWPVSFYFFPPDKYFRS [STMN1] | 15.2
SLRLQRLLCIAFLLQCKERDQGSQEMFAQNGR [GDNF] | 8.43
YKNQNGLR [ADGRB3] | 0.651
RLLTHRHNLGH [MMP19] | 8.57
QDTVNSSSKILACKHPLKFKRGKIKYNEF [ANKRD30BL] | 1.66
QRTTEHLVSQNGLTTVSTTYSQMSISTSVELK [CYLC1] | 1.57
YINKIRRGSETEKEKAKDWFVCLISFC [NR2F2] | 9.01
WPSPPCQGQDPDFSKCGSHSAGTCRDMRGGCCHGRLPLHTRHWGSDPPGRWPFSPSS [CYSRT1] | 2.04
LQIYVCYN [OR8I2] | 6.8
RDVQDL [ZMPSTE24] | 0.177
KKKKKQQVMELHILVTQWTIIGSHWKSGKNPWRLSFSDILPNALLSRIFVSFCLIFWGVFVVVGLFFVFFF [PPP1R12A] | 4.71

Substance | median enrichment
LSVHWGPSVVPFVENLLHKALLNCLELGTSIPMETSPVWGTWRICQRLSDMGPWQFYTGKWSAPLGYTRLSVFSPSILFPLHM [NYNRIN] | 3.7
ETGPTHHSPSPSISTWCLVPVHSVNKKP [KLK11] | 2.42
EEEEE [Glu05] | 1.41
WGLRPHAPSHAVHPFSQVPNGPGSQDPGPSQNLCPPCP [SARDH] | 9.03
RAETSALLTLRDTTRLHGEV [CORO2A] | 6.49
SDTLLWSETEDVG [PEX7] | 2.59
WIEKI [GTF2A2] | 1.64
REGSNGSRELDTVHPNTSPPPGHLEESSARIPRQSSPPAPAVPSCAVLLPHSAPGPCPFIPLKHPLKPLHHFHSQQKVIEHLL [HAUS5] | 7
SITLILWKSEQAVAVFHSSSCCVQLLPSQPFNKIILKCYPSALPFNGKMKGSDNTGGPNFVPVLCVPYLSVPVYRLCKSLV [RABL3] | 6.24
LQCTIFSHLYYFFSACIT [HAO1] | 1.93
WGPGRGPGAVGT [INSYN1] | 5.06
SDQLVCL [PPP1R15A] | 0.401
WQHFCILKKCNLFLITALKL [UBQLN1] | 12.2
LVVAGPGPRPCPGPDSLSHVPSPRLPRTLSLPRPQP [MAFB] | 9.74
LELLPCPSFPPCTT [FEZF2] | 1.27
SPHPAPPPPRPTRRPPDSSPGASSATPSLHPWGPSPPACTEQGLGVSWEA [ITGB4] | 0.621
CCP [RUBCNL] | 0.512
CGIII [SRGAP2] | 1.59
CAPAERRLETGATASRVQQHSRHGSGRDSAWPRGTFPGQGPGGNWHGLVPLLCCILIPQPAPLGSDLSCPRAEPGGPEGEMNP [ANKRD13B] | 6.25
SDPTSPSAFHWLCHGLYKQIIFPLFKIKSPNENLGM [PRSS37] | 5.12
RVAVWEPLCLAPGYPGPGNLRAGERWGGRHAEVLLVTGLPSLTCTYLHPELSSSPSSCLLLPTCLPSAGAPRPTHSYCTVHFI [SLC36A1] | 3.4
YLEQMETPWGAGSGSPAPSQTLQCQKQQQNETQPPPTTATTRRMIQQVFLKN [GRIA1] | 2.38
QWPHPHWAQARRGPAHAHTTGQGCGAGAIPAPFPGPRGLGSLPSHPGLVPPGAPTVEIRRGWNGGRGGAGGPHPSAALGLGPH [GNB2] | 7.88

Substance | median enrichment
RSPPHLRPKGRPPPAFLTPALLPQRMWGGGGGPCGPGAQLPGTPVPGQAHLEEESLPPPKYWAALSLPRDHPSLPAMCTIMTN [GPR108] | 3.35
WGWRQLSSRSLGFAALAAVTRNCPGLGGELGGP [ACP7] | 8.55
YLDHDLVQ [TRAT1] | 0.456
CGRCTRQEEGDWGPWPGTVLLRGRRRLQQSHGSPRGEGCLSRFLRPRRSDFWARGHARAVQSWPGPPVGLLCSLPSLPPDAGP [FRMD8] | 5.53
WGNKRKLSPESATSAPSIFSINALYQPQSSLFKLTPC [ZNF474] | 8.63
YKRPWSGPTLRPSISQALSAVIPRTQWAPCTPVSGAVRLGYIVNSASTERLALRASSESSSSGTPPKPTPPGTPLSGIPAKRR [PRRT1] | 1.15
CRALMSPTRKLTPNKRLPFPLGFFVLFLSKRDR [IPO5] | 4.2
LKEIWEIL [ZNF418] | 16.1
LEVVFGVQLLPCTFSLLLSSSTPNRENLGVSGSIWALIYSPSFLSML [ZNF774] | 9.71
GGRACTGATQPGLGAASPQPPRAKNLFIKECFGTL [LMNA] | 17.9
YRLFVHYCFHFVPRVKQTTEKSNQVITYPSAGDFDY [ZBBX] | 10.1
QWSWLRVGEGTWA [RTP2] | 2.67
IPVPEHQIPRQLMRLAQCVTEAPGSQQSRAYSAHQAEQATGRDDASGQGSAGDRDYRPAVSGPLQRLPTQGLVGVKHDDNTYT [CCDC137] | 0.864
YAVQSSFSGA [NLRP8] | 5.86
MMMM [Met04] | 1.4
KGPPLLILPTPPPRFSHWPGLGCPYRRSVCSPTVRRGHTLQNTAQNSKKSLHAK [IFI35] | 11.2
SALTHAHAPLTLKRIHNSLEKHPHVCCRTHSSQLRPIPVTTASPPTPVTTASPPTPVTTASPPTALSPRPMSACPRAQDFLTG [SSH3] | 2.09
RICKRRRHDVLCLH [MED12L] | 13.4
SEEQPSFVPVVFIKYPLHP [WDR54] | 6.65
SCRDSPAPKYK [MT1G] | 0.15
EEEEEE [Glu06] | 1.59
STARIKNMFPCLSDTSLLDEARKIYMKILKIHIADFMEWTSCISTEKQQHNNTKILGTLK [CDKN1B] | 38.1
RGASLLSSHSGSSFHPPPSPPPTRGTWWREAGRLFCGIARSSLWCRLVAITCNKAPGKGK [TLE6] | 21.9

Substance | median enrichment
QTAKKEKLN [PTMA] | 0.399
CDPCKWDSPPVHEAWLLQYLLVEELYSKMKRKNKQTNKKKHKKRKNTFLYLTMFFEYVFFL [RBFOX2] | 0.264
CRVSLWPLSGIPGGRGGEGGTHIVNS [BDH1] | 6.12
RQWLSCDDRQNGGEICLWEVEP [FBXO45] | 6.14
QAASWRFEDAAFGLDEFQILLACFLILICLYTYTLCTKLFLIHGLLNPQMWSPWIRKARCTLNDK [B2M] | 11.1
QCL [ADGRG6] | 0.557
LNQFLGLTAM [BTN2A1] | 12.4
YTHMYDPYKCFKILKM [TRDN] | 11.1
GGFFC [GBP7] | 0.518
CQLLHILGPCLFSQDRLLKAEEPVLGAPSQTPKTCFHVPRSLLTSPNKGP [PSENEN] | 26.4
SISL [NPAS4] | 0.469
YGPVGPAAVLHPTPLTPASCCK [WDR13] | 6.81
QHQ [ANKRD6] | 0.522
LEMKKDEVLTQ [DNAJC5G] | 0.255
WGEKPQKGKLQTSWETCAKDFAD [CXCL14] | 0.277
CFSRGQGGEGASGGVGAGGTVPREPGGSHTRTAPVSSGHCNPVGLFLQHSRSLPSIATLQTPG [SFRP1] | 4.21
QCR [CCDC73] | 0.362
LKDRFFKLT [RBBP6] | 3.7
KELFQFIE [FOXJ3] | 0.495
LGGRCRKHLEQPQSHGAEGAGAAPVIGRGIPSVCSASCLLNKGLFLTHK [CUL9] | 14.9
WGYWPTLWAPCSA [EFCC1] | 7.99
GHACLPNTIWSWTTFDTNQSYWTRPLEDLKYTSHAVVYLGCDSLSNAALGKDESDLQGEKCNHTWAPVNYGTEGPNCSPKGAA [APOBEC2] | 3.91
QRHGVLGGLMGTGACIFCWGMKLITLL [AGBL4] | 4.93

Substance | median enrichment
LSCPDAME [MYH2] | 0.416
VVVVV [Val05] | 10.3
SYCSMDIK [KDM6A] | 1.22
LHTELFIDTPHDCISRTHLLIILDPRETITSPSRQWRQIKISAEKEGHVEPQKHFYSG [SNTG1] | 9
SDQGLGLRVGGLVEHCNPLNK [LRG1] | 1.34
YLSSAPVVVVVLNFRI [ZSCAN21] | 16.1
YRRLPRAPPHSMTRLWIPHCTSHSPLSAPSPPCWSCSHTPGTGLGHPLLPACVFLILGRPG [KRT71] | 6.31
CPADTLPPPAPSTLSWAPPYLNL [NGF] | 0.552
YTDYIGSFELTSDKGGKFRQHYDLINFIF [MSH6] | 21.1
YFMSFSISAADLC [DNAJC6] | 25.5
SMLLPGLQKLHGHSSVIGLSLITKITAQDHLPEKHPLA [PLCB1] | 19.1
SGLLLY [MRPL20] | 1.83
WRSCAAQSQTPAPTTYFCYTQEHFRKLSQLIFCFSSMSILSVSHFEDFFSLLYLCFSFFGFYFVVLSVIFNVPKICTCSIKNV [HOOK3] | 2.08
YFFLELKHPRMPLHVFHSPHLQTSLLFLTRPESKLPSLGNSGEGVSCTTYHTPSHPVSDFGMDSGKLGPSLNRVMYLNVCYFQ [HSPA1L] | 10.9
SAHQRAPSPRIAAPTQPGAPDPPGGLRGNRRREGKGPPSPSRPQGAATDWRAAEGGRARAPRGRTIRAPAPRPVPPQARA [TLX3] | 3.75
LQNPNLELPMLLSYKHTDSGYS [ATP11C] | 1.23
GLLPVDEVSFL [ABCC5] | 0.739
QTSLHFILF [FABP1] | 24.1
QKGSGPGIHVGGRGRGGRREGRGEIHTVDTLTSWPKSLPQDLPDLHGQASYGGVSISFFLFLFPGLRASWGPRFTNSPTPLKL [AQP1] | 6.27
SWHSSPHTCSQAQMEVP [ACTL6B] | 0.404
SHH [SPRY2] | 0.73
NNNNNN [Asn06] | 0.37
